Molecular target: T1, human Kir2.1 channel, wild type (human), P63252
T1 chain: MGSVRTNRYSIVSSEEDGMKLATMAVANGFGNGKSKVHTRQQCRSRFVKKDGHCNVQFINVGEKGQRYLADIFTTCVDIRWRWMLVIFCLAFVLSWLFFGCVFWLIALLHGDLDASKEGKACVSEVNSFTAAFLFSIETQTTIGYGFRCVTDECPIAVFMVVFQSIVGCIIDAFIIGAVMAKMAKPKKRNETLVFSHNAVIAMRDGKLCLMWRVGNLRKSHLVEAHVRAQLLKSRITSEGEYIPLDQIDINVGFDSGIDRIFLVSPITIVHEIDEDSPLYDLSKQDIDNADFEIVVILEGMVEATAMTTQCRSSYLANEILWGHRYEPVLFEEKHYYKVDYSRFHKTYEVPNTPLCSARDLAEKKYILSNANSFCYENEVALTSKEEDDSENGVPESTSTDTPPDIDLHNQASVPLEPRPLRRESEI
Experiment: SEC
Conditions: remark: other sources report otherwise

- stoichiometry N: 4
B1: human Kir2.1 channel, wild type, P63252 1-427 (natural protein)
chain: MGSVRTNRYSIVSSEEDGMKLATMAVANGFGNGKSKVHTRQQCRSRFVKKDGHCNVQFINVGEKGQRYLADIFTTCVDIRWRWMLVIFCLAFVLSWLFFGCVFWLIALLHGDLDASKEGKACVSEVNSFTAAFLFSIETQTTIGYGFRCVTDECPIAVFMVVFQSIVGCIIDAFIIGAVMAKMAKPKKRNETLVFSHNAVIAMRDGKLCLMWRVGNLRKSHLVEAHVRAQLLKSRITSEGEYIPLDQIDINVGFDSGIDRIFLVSPITIVHEIDEDSPLYDLSKQDIDNADFEIVVILEGMVEATAMTTQCRSSYLANEILWGHRYEPVLFEEKHYYKVDYSRFHKTYEVPNTPLCSARDLAEKKYILSNANSFCYENEVALTSKEEDDSENGVPESTSTDTPPDIDLHNQASVPLEPRPLRRESEI

Reference: article PMC9506730
